Measurements as given in the supplement of paper PMC7877785.
± gives the uncertainty stated by the source.

Test: self-splicing fitness, log relative to wild type (ln ratio); higher = more splicing; Tetrahymena group I intron in knt gene, E. coli kanamycin selection, DiMSum; sequences stand for … in CUCUCU…GGAGGGAAAAGUUAUCAGGCAUGCACCUGGUAGCUAGUCUUUAAACCAAUAGAUUGCAUCGGUUUAAAAGGCAAGACCGUCAAAUUGCGGGAAAGGGGUCAACAGCCGUUCAGUACCAAGUCUCAGGGGAAACUUUGAGAUGGCCUUGCAAAGGGUAUGGUAAUAAGCUGACGGACAUGGUCCUAACCACGCAGCCAAGUCCUAAGUCAACAGAUCUUCUGUUGAUAUGGAUGCAGUUCACAGACUAAAUGUCGGUCGGGGAAGAUGUAUUCUUCUCAUAAGAUAUAGUCGGACCUCUCCUUAAUGGGAGCUAGCGGAUGAAGUGAUGCAACACUGGAGCCGCUGGGAACUAAUUUGUAUGCGAAAGUAUAUUGAUUAGUUUUGGAGUACUCGUGGUCG
In short: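 Colonies from six replicate transformations of E. coli BL21(DE3) were pooled and amplicon-sequenced on an Illumina HiSeq 2500. The library placed an intron with all eight P1ex-region nucleotides randomised inside the knt kanamycin-resistance gene on pET-22b(+), and cells grew overnight at 37°C or 30°C on LB agar with or without 25 μg/mL kanamycin (plus 100 μg/mL carbenicillin, 50 μM IPTG, 0.2% rhamnose). Fitness is the DiMSum error-weighted combination of wild-type-normalised replicate fold changes, kanamycin versus none.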

Sequence	self-splicing fitness (ln) (30 °C)	self-splicing fitness (ln) (37 °C)
UUCGAGCAAUAUUACGCCUG	-3.17 ± 0.29	-2.64 ± 0.2
UUCGAGCAAUAUUACGCGAG	-2.72 ± 0.37	-1.94 ± 0.44
CCCCAGCAAUAUUACGGUCU	-3.81 ± 0.13	-2.73 ± 0.17
UAAUAGCAAUAUUACGUGGA	-2.97 ± 0.23	-2.33 ± 0.24
AAGUAGCAAUAUUACGUCCC	-0.0634 ± 0.3	-0.156 ± 0.24
GUACAGCAAUAUUACGUAUC	-2.87 ± 0.16	-1.35 ± 0.28
CUCAAGCAAUAUUACGGCUU	-3.53 ± 0.18	-2.65 ± 0.21
GGUCAGCAAUAUUACGUCGA	-0.64 ± 0.098	-0.54 ± 0.1
AUGCAGCAAUAUUACGCUUG	-3.06 ± 0.12	-2.85 ± 0.18
ACGCAGCAAUAUUACGUCAC	-4.13 ± 0.39	-2.54 ± 0.19
UCGUAGCAAUAUUACGAUAA	-3.65 ± 0.26	-1.72 ± 0.2
CCGAAGCAAUAUUACGGCAA	-3.61 ± 0.38	-1.98 ± 0.38
AAUGAGCAAUAUUACGCAUA	-2.52 ± 0.19	-2.42 ± 0.24
UGCCAGCAAUAUUACGAUCC	-3.25 ± 0.29	-1.11 ± 0.42
ACAGAGCAAUAUUACGUCGC	-2.98 ± 0.31	-3.02 ± 0.31
CAUCAGCAAUAUUACGUCCU	-3.78 ± 0.22	-1.91 ± 0.22
CAGAAGCAAUAUUACGCGUU	-3.09 ± 0.17	-3.61 ± 0.29
CCAAAGCAAUAUUACGUUAU	-3.2 ± 0.13	-2.68 ± 0.15
AGCAAGCAAUAUUACGCUCG	-2.82 ± 0.27	
UUACAGCAAUAUUACGAUUC	-2.03 ± 0.092	-0.667 ± 0.097
CGAUAGCAAUAUUACGAGUA	-2.16 ± 0.26	-1.88 ± 0.19
UGAAAGCAAUAUUACGUCCG	0.111 ± 0.1	0.472 ± 0.14
GGGAAGCAAUAUUACGGCGC	-2.22 ± 0.1	-1.1 ± 0.053
GCCCAGCAAUAUUACGGUCA	-0.8 ± 0.071	-0.326 ± 0.074
GGACAGCAAUAUUACGUACC	-1.81 ± 0.32	

Sequence	self-splicing fitness (ln) (30 °C)	self-splicing fitness (ln) (37 °C)
GUUAAGCAAUAUUACGACCA	-0.467 ± 0.21	-1.67 ± 0.17
GAAAAGCAAUAUUACGAGGU	-3.97 ± 0.14	-2.92 ± 0.13
UGUUAGCAAUAUUACGCAUC		-1.93 ± 0.27
GUAUAGCAAUAUUACGGGUG	-3.76 ± 0.16	-2.86 ± 0.22
AAGGAGCAAUAUUACGCCGG	-3.01 ± 0.4	-2.6 ± 0.36
UAGAAGCAAUAUUACGUUGA	-2.99 ± 0.23	-1.62 ± 0.18
CAAUAGCAAUAUUACGGUAC	-3.25 ± 0.19	-2.08 ± 0.18
CGCGAGCAAUAUUACGCCCU	-3.1 ± 0.29	-2.5 ± 0.39
ACGUAGCAAUAUUACGAUAU	-1.39 ± 0.1	-1.04 ± 0.15
GUCGAGCAAUAUUACGAAAA		-2.58 ± 0.41
CUUAAGCAAUAUUACGCCCG	-1.46 ± 0.28	0.386 ± 0.3
UCAUAGCAAUAUUACGGGCU		-2.19 ± 0.32
AACCAGCAAUAUUACGGUGG	-2.33 ± 0.086	-1.44 ± 0.1
GUAGAGCAAUAUUACGCUCC	-1.72 ± 0.36	
CAAAAGCAAUAUUACGCGCC	-2.04 ± 0.17	-0.789 ± 0.19
CGGAAGCAAUAUUACGUGAG	-0.991 ± 0.058	-0.391 ± 0.085
AUUCAGCAAUAUUACGUCCG	-0.866 ± 0.2	-1.33 ± 0.24
UCUGAGCAAUAUUACGGGAU	-2.35 ± 0.18	-2.54 ± 0.24
UCUUAGCAAUAUUACGUUAU	-3.27 ± 0.28	-2.3 ± 0.28
UGUGAGCAAUAUUACGCCGC	-2.82 ± 0.34	-1.2 ± 0.48
CAGAAGCAAUAUUACGAGUA	-3.2 ± 0.29	-1.66 ± 0.22
CCUAAGCAAUAUUACGGCCC	-2.37 ± 0.29	
CACCAGCAAUAUUACGGGCU	-4.86 ± 0.2	-2.8 ± 0.16
AGGCAGCAAUAUUACGGUGG	-3.05 ± 0.16	-2.88 ± 0.23
AAUUAGCAAUAUUACGUUUA	-1.6 ± 0.12	-0.975 ± 0.12

Sequence	self-splicing fitness (ln) (30 °C)	self-splicing fitness (ln) (37 °C)
GUGGAGCAAUAUUACGGGAU	-4.12 ± 0.23	-1.99 ± 0.24
AAGUAGCAAUAUUACGCUCU	-1.25 ± 0.18	-1.29 ± 0.17
AUCAAGCAAUAUUACGCCCA	-0.266 ± 0.15	0.0648 ± 0.2
ACCUAGCAAUAUUACGCAUC	-1.83 ± 0.072	-0.436 ± 0.078
GUUAAGCAAUAUUACGCCUC	-1.41 ± 0.25	0.196 ± 0.31
GAUUAGCAAUAUUACGCUCU	-1.26 ± 0.41	-0.272 ± 0.27
UAUUAGCAAUAUUACGAACG	-0.156 ± 0.12	0.194 ± 0.14
UUUCAGCAAUAUUACGAUAG	-0.323 ± 0.088	-0.323 ± 0.11
CCCAAGCAAUAUUACGGGAU	-3.41 ± 0.096	-2.47 ± 0.12
GAUGAGCAAUAUUACGCCUU	-1.7 ± 0.24	
GGGCAGCAAUAUUACGCGGA	-1.23 ± 0.15	-0.758 ± 0.1
GUACAGCAAUAUUACGCAGU	-4.74 ± 0.31	-3 ± 0.24
AAUAAGCAAUAUUACGAUAC	-2.25 ± 0.25	-1.44 ± 0.44
GAUUAGCAAUAUUACGGUAA	-1.83 ± 0.23	-1.5 ± 0.17
GAUAAGCAAUAUUACGCGGC	-3.27 ± 0.26	-1.13 ± 0.2
ACAAAGCAAUAUUACGCGAC	-2.02 ± 0.11	-1.16 ± 0.12
AACAAGCAAUAUUACGUACU	-0.11 ± 0.05	0.496 ± 0.071
AUGUAGCAAUAUUACGGAAG		-2.01 ± 0.31
GCCCAGCAAUAUUACGCAAA	-2.41 ± 0.14	-1.3 ± 0.11
CGGUAGCAAUAUUACGCGGA	-2.54 ± 0.12	-1.26 ± 0.097
CGGCAGCAAUAUUACGGGCU	-3.81 ± 0.22	-2.16 ± 0.24
GGCUAGCAAUAUUACGUGGA	-1.81 ± 0.14	-0.667 ± 0.12
UCUUAGCAAUAUUACGUGGU	-3.39 ± 0.16	-3.1 ± 0.23
AUCCAGCAAUAUUACGUGUG	-1.79 ± 0.057	-0.983 ± 0.06
UGGGAGCAAUAUUACGAUUA	-2.17 ± 0.22	-2.1 ± 0.29

Sequence	self-splicing fitness (ln) (30 °C)	self-splicing fitness (ln) (37 °C)
AGUCAGCAAUAUUACGGAAU	-1.84 ± 0.084	-0.425 ± 0.077
UAUCAGCAAUAUUACGGAAC	-1.44 ± 0.21	
ACGUAGCAAUAUUACGUUUA	-2.63 ± 0.15	-2.73 ± 0.17
AAAAAGCAAUAUUACGUUAA	-2.66 ± 0.12	-1.05 ± 0.093
ACUCAGCAAUAUUACGUAAA	-1.36 ± 0.069	-0.79 ± 0.09
UUAGAGCAAUAUUACGGAAC	-4.11 ± 0.39	-2.33 ± 0.37
AAUUAGCAAUAUUACGUUCU	-0.609 ± 0.077	-0.522 ± 0.099
AGAAAGCAAUAUUACGCUAU	-2.98 ± 0.18	-1.62 ± 0.18
UAUAAGCAAUAUUACGCCAG	-0.478 ± 0.21	-0.728 ± 0.27
CACUAGCAAUAUUACGUCCA	-2.87 ± 0.22	-1.31 ± 0.16
CGCCAGCAAUAUUACGACAU	-3.741 ± 0.023	-2.75 ± 0.038
GAAAAGCAAUAUUACGAUAA	-1.58 ± 0.081	-0.197 ± 0.091
GAGGAGCAAUAUUACGGUGC	-3.87 ± 0.28	-2.32 ± 0.15
AGAUAGCAAUAUUACGAUCG	0.112 ± 0.058	0.0462 ± 0.1
CGCGAGCAAUAUUACGUACC		-2.69 ± 0.35
ACGUAGCAAUAUUACGGGUG	-2.67 ± 0.086	-1.18 ± 0.085
GGCGAGCAAUAUUACGUCUU	-0.851 ± 0.047	-0.197 ± 0.06
AGAGAGCAAUAUUACGUAAU	-4.18 ± 0.33	-2.81 ± 0.34
GAUUAGCAAUAUUACGAGGA	-2.13 ± 0.29	-2.08 ± 0.31
UUAUAGCAAUAUUACGAGCU		-2.16 ± 0.26
CGUCAGCAAUAUUACGCUAA	-2.28 ± 0.18	-0.0328 ± 0.15
CCCAAGCAAUAUUACGGUGC	-3.6 ± 0.27	-2.26 ± 0.22
UAUAAGCAAUAUUACGCAGU	-3.27 ± 0.2	-1.68 ± 0.15
GCGGAGCAAUAUUACGUAAG	-3.35 ± 0.33	-0.951 ± 0.19
